# Data taken from article PMC9482650, “Quantitative fragmentomics allow affinity mapping of interactomes” (Nature Communications, 2022).
# Positions count from the first letter of the chain named.
# B1: FAM110B, Q8TC76 (peptide)
# chain: ARESQKVSHV
# Molecular target: T1, APBA2_1, Q99767
# T1 sequence (Q99767 563-664, limits assumed, looked up): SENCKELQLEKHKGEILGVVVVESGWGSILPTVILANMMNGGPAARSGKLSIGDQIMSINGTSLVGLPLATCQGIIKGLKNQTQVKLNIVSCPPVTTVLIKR
# Assay: holdup assay
# Set-up: key: below the threshold = too weak to quantify, mostly under pKd 3.1 to 4
# Settings: plain residues with an end cap or a label only (N-terminal biotin on a linker: ado-ado)
row,Binder,pKd
1,B1,below the threshold

# Molecular target: HTRA1, Q92743
# Sequence (Q92743 360-477): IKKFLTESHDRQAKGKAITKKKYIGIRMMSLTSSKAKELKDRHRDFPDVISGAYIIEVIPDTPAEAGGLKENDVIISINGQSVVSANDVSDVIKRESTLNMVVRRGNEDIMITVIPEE
# Assay: holdup assay
# Set-up: key: below the threshold = too weak to quantify, mostly under pKd 3.1 to 4
# Settings: plain residues with an end cap or a label only (N-terminal biotin on a linker: ado-ado)
row,Binder,pKd
1,B1,4.32

# Molecular target: GORASP2, Q9H8Y8
# Assay: holdup assay
# Set-up: key: below the threshold = too weak to quantify, mostly under pKd 3.1 to 4
# Settings: plain residues with an end cap or a label only (N-terminal biotin on a linker: ado-ado)
row,Binder,pKd
1,B1,4.88

# Molecular target: T2, GRIP1_2, Q9Y3R0
# T2 sequence (Q9Y3R0 145-248, limits assumed, looked up): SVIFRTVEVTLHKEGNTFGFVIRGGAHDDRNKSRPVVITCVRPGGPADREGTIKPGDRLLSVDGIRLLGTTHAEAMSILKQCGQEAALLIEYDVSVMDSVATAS
# Assay: holdup assay
# Set-up: key: below the threshold = too weak to quantify, mostly under pKd 3.1 to 4
# Settings: plain residues with an end cap or a label only (N-terminal biotin on a linker: ado-ado)
row,Binder,pKd
1,B1,below the threshold

# Molecular target: T3, PCLO, Q9Y6V0
# T3 sequence (Q9Y6V0 4491-4600, limits assumed, looked up): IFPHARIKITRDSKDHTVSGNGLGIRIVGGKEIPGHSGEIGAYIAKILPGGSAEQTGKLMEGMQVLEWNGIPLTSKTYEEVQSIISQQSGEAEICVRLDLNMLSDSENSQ
# Assay: holdup assay
# Set-up: key: below the threshold = too weak to quantify, mostly under pKd 3.1 to 4
# Settings: plain residues with an end cap or a label only (N-terminal biotin on a linker: ado-ado)
row,Binder,pKd
1,B1,below the threshold

# Molecular target: SCRIB_3, Q14160
# Sequence (Q14160 999-1103): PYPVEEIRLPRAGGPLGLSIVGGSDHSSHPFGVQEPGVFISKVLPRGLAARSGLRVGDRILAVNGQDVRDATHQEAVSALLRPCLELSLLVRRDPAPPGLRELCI
# Assay: holdup assay
# Set-up: key: below the threshold = too weak to quantify, mostly under pKd 3.1 to 4
# Settings: plain residues with an end cap or a label only (N-terminal biotin on a linker: ado-ado)
row,Binder,pKd
1,B1,4.47

# Molecular target: HTRA2, O43464
# Sequence (O43464 355-458): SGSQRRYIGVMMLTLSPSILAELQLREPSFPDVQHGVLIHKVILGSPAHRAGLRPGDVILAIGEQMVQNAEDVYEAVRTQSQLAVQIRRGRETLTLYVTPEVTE
# Assay: holdup assay
# Set-up: key: below the threshold = too weak to quantify, mostly under pKd 3.1 to 4
# Settings: plain residues with an end cap or a label only (N-terminal biotin on a linker: ado-ado)
row,Binder,pKd
1,B1,below the threshold

# Molecular target: Inadl_8, Q8NI35
# Sequence (Q8NI35 1425-1530): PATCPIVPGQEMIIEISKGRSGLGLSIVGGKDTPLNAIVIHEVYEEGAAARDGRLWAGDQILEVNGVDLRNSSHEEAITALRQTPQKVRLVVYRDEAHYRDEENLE
# Assay: holdup assay
# Set-up: key: below the threshold = too weak to quantify, mostly under pKd 3.1 to 4
# Settings: plain residues with an end cap or a label only (N-terminal biotin on a linker: ado-ado)
row,Binder,pKd
1,B1,4.8

# Molecular target: T4, SNTG1, Q9NSN8
# T4 sequence (Q9NSN8 52-150, limits assumed, looked up): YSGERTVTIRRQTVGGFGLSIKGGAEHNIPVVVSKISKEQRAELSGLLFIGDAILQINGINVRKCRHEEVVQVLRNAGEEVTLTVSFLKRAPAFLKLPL
# Assay: holdup assay
# Set-up: key: below the threshold = too weak to quantify, mostly under pKd 3.1 to 4
# Settings: plain residues with an end cap or a label only (N-terminal biotin on a linker: ado-ado)
row,Binder,pKd
1,B1,4.34

# Molecular target: T5, FRMPD1, Q5SYB0
# T5 sequence (Q5SYB0 52-145, limits assumed, looked up): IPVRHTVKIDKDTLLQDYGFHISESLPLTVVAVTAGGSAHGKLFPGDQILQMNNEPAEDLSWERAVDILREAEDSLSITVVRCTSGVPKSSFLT
# Assay: holdup assay
# Set-up: key: below the threshold = too weak to quantify, mostly under pKd 3.1 to 4
# Settings: plain residues with an end cap or a label only (N-terminal biotin on a linker: ado-ado)
row,Binder,pKd
1,B1,below the threshold

# Molecular target: T6, DLG3_2, Q92796
# T6 sequence (Q92796 221-321, limits assumed, looked up): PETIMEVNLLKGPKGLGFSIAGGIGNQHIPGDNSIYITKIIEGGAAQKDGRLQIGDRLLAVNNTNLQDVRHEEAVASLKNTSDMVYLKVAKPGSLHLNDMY
# Assay: holdup assay
# Set-up: key: below the threshold = too weak to quantify, mostly under pKd 3.1 to 4
# Settings: plain residues with an end cap or a label only (N-terminal biotin on a linker: ado-ado)
row,Binder,pKd
1,B1,4.22

# Molecular target: IL16_4, Q14005
# Sequence (Q14005 1229-1329): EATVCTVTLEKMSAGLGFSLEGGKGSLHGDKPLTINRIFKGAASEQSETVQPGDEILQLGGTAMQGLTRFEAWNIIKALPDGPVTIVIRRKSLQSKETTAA
# Assay: holdup assay
# Set-up: key: below the threshold = too weak to quantify, mostly under pKd 3.1 to 4
# Settings: plain residues with an end cap or a label only (N-terminal biotin on a linker: ado-ado)
row,Binder,pKd
1,B1,below the threshold

# Molecular target: NHERF4_1, Q86UT5-2
# Sequence (Q86UT5 other isoform, or with tags, fused parts or gaps): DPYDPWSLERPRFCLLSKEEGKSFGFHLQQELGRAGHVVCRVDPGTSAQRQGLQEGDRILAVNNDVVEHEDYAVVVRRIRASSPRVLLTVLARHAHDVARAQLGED
# Assay: holdup assay
# Set-up: key: below the threshold = too weak to quantify, mostly under pKd 3.1 to 4
# Settings: plain residues with an end cap or a label only (N-terminal biotin on a linker: ado-ado)
row,Binder,pKd
1,B1,3.74

# Molecular target: LNX1_3, Q8TBB1
# Sequence (Q8TBB1 500-596): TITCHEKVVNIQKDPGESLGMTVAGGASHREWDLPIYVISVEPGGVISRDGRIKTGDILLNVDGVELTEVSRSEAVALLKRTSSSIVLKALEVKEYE
# Assay: holdup assay
# Set-up: key: below the threshold = too weak to quantify, mostly under pKd 3.1 to 4
# Settings: plain residues with an end cap or a label only (N-terminal biotin on a linker: ado-ado)
row,Binder,pKd
1,B1,below the threshold

# Molecular target: PDLIM1, O00151
# Sequence (O00151 1-87): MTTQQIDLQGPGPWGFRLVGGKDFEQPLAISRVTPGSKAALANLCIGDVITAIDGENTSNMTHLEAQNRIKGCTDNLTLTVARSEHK
# Assay: holdup assay
# Set-up: key: below the threshold = too weak to quantify, mostly under pKd 3.1 to 4
# Settings: plain residues with an end cap or a label only (N-terminal biotin on a linker: ado-ado)
row,Binder,pKd
1,B1,below the threshold

# Molecular target: T7, DVL3, Q92997
# T7 sequence (Q92997 244-331, limits assumed, looked up): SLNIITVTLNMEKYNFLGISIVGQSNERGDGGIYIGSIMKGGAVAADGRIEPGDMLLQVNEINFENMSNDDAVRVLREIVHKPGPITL
# Assay: holdup assay
# Set-up: key: below the threshold = too weak to quantify, mostly under pKd 3.1 to 4
# Settings: plain residues with an end cap or a label only (N-terminal biotin on a linker: ado-ado)
row,Binder,pKd
1,B1,below the threshold

# Molecular target: T8, PDZRN3_1, Q9UPQ7
# T8 sequence (Q9UPQ7 244-349, limits assumed, looked up): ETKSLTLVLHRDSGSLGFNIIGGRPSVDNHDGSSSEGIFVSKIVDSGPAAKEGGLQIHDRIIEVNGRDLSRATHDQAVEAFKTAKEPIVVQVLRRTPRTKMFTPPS
# Assay: holdup assay
# Set-up: key: below the threshold = too weak to quantify, mostly under pKd 3.1 to 4
# Settings: plain residues with an end cap or a label only (N-terminal biotin on a linker: ado-ado)
row,Binder,pKd
1,B1,below the threshold

# Molecular target: TJP1_3, Q07157
# Sequence (Q07157 416-512): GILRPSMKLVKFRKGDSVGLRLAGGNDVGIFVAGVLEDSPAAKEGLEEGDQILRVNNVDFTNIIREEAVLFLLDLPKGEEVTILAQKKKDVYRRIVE
# Assay: holdup assay
# Set-up: key: below the threshold = too weak to quantify, mostly under pKd 3.1 to 4
# Settings: plain residues with an end cap or a label only (N-terminal biotin on a linker: ado-ado)
row,Binder,pKd
1,B1,below the threshold

# Molecular target: T9, MPP6, Q9NZW5
# T9 sequence (Q9NZW5 125-219, limits assumed, looked up): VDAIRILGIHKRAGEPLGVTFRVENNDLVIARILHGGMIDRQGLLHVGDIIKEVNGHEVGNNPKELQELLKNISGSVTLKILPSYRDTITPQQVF
# Assay: holdup assay
# Set-up: key: below the threshold = too weak to quantify, mostly under pKd 3.1 to 4
# Settings: plain residues with an end cap or a label only (N-terminal biotin on a linker: ado-ado)
row,Binder,pKd
1,B1,below the threshold

# Molecular target: LAP2, Q96RT1
# Sequence (Q96RT1 other isoform, or with tags, fused parts or gaps): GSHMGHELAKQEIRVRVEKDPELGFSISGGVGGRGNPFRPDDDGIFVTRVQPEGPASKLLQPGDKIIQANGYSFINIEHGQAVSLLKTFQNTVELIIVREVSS
# Assay: holdup assay
# Set-up: key: below the threshold = too weak to quantify, mostly under pKd 3.1 to 4
# Settings: plain residues with an end cap or a label only (N-terminal biotin on a linker: ado-ado)
row,Binder,pKd
1,B1,3.66

# Molecular target: FRMPD2_2, Q68DX3
# Sequence (Q68DX3 944-1038): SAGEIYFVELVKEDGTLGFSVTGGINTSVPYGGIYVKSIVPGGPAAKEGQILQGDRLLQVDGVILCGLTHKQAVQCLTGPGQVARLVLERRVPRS
# Assay: holdup assay
# Set-up: key: below the threshold = too weak to quantify, mostly under pKd 3.1 to 4
# Settings: plain residues with an end cap or a label only (N-terminal biotin on a linker: ado-ado)
row,Binder,pKd
1,B1,4.31

# Molecular target: GRID2IP_1, A4D2P6
# Sequence (A4D2P6 1-87): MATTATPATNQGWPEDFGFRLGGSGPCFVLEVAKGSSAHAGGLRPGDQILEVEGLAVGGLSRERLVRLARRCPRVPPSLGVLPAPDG
# Assay: holdup assay
# Set-up: key: below the threshold = too weak to quantify, mostly under pKd 3.1 to 4
# Settings: plain residues with an end cap or a label only (N-terminal biotin on a linker: ado-ado)
row,Binder,pKd
1,B1,below the threshold

# Molecular target: T10, DLG3_1, Q92796
# T10 sequence (Q92796 125-227, limits assumed, looked up): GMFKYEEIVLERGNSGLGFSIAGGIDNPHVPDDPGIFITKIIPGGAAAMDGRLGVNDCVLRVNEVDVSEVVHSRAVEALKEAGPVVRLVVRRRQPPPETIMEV
# Assay: holdup assay
# Set-up: key: below the threshold = too weak to quantify, mostly under pKd 3.1 to 4
# Settings: plain residues with an end cap or a label only (N-terminal biotin on a linker: ado-ado)
row,Binder,pKd
1,B1,below the threshold

# Molecular target: T11, LIN7B, Q9HAP6
# T11 sequence (Q9HAP6 88-185, limits assumed, looked up): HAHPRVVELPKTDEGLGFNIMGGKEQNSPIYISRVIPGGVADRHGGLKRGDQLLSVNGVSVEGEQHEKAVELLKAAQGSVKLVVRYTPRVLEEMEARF
# Assay: holdup assay
# Set-up: key: below the threshold = too weak to quantify, mostly under pKd 3.1 to 4
# Settings: plain residues with an end cap or a label only (N-terminal biotin on a linker: ado-ado)
row,Binder,pKd
1,B1,below the threshold

# Molecular target: T12, LIN7A, O14910
# T12 sequence (O14910 103-200, limits assumed, looked up): T11 sequence (Q9HAP6 88-185, limits assumed, looked up) with A2S, I20V, V35I, D42E, Q65H, Q77K, G78D, R89K
# Assay: holdup assay
# Set-up: key: below the threshold = too weak to quantify, mostly under pKd 3.1 to 4
# Settings: plain residues with an end cap or a label only (N-terminal biotin on a linker: ado-ado)
row,Binder,pKd
1,B1,below the threshold

# Molecular target: ARHGEF12, Q9NZN5-2
# Sequence (Q9NZN5 other isoform, or with tags, fused parts or gaps): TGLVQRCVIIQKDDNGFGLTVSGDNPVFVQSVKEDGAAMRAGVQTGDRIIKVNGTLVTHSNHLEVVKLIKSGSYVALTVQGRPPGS
# Assay: holdup assay
# Set-up: key: below the threshold = too weak to quantify, mostly under pKd 3.1 to 4
# Settings: plain residues with an end cap or a label only (N-terminal biotin on a linker: ado-ado)
row,Binder,pKd
1,B1,4.58
